Test results taken from patent US20090324579A1 (UNIVERSITY OF WINDSOR, published 2009).

B1: Casp2 VHH displayed on phage (VHH)
VHH: DVQLQASGGGLVQAGGSLRLSCAASTNIFRDKFMAWYRQAPGKQRELVASITTGGRTDYADSVKGRFTISRDNTKDTMYLQMNSLKPEDTAVYYCAGFLGRTYWGQGTQVTVSS
notes: also called Casp2 sdAb
B2: Casp1 VHH displayed on phage (VHH)
VHH: DVQLQASGGGLVQPGGSLRLSCAASGSLSRITVMGWYRQAPGKQRELVAIITSSGGTNYADSVKGRFTISRDNAKNTVYLQMNSLKPEDTAVYYCLAARGYDRYWGRGTQVTVSS
notes: also called Casp1 sdAb

Target: T1, BSA (UniProt P02769 25-607)
T1 construct: also called control BSA antigen; control antigen
T1 sequence (P02769 25-607 limits assumed): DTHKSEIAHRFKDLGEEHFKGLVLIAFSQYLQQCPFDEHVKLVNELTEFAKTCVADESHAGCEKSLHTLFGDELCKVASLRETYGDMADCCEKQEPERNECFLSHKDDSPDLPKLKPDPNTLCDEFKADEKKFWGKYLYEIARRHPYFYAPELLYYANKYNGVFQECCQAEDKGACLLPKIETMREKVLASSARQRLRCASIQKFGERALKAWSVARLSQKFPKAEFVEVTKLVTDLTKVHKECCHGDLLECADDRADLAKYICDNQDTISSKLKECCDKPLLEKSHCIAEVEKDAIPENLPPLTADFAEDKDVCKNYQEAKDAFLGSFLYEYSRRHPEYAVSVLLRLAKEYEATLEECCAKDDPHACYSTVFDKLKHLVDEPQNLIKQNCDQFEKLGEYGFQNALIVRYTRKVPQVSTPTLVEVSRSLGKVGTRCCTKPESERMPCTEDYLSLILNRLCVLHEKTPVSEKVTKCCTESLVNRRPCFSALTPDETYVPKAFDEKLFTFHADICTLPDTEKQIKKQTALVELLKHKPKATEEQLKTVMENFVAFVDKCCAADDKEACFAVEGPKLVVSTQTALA
Assay: phage ELISA

Binder | binding result
B1 | no binding
B2 | no binding
